Assay results as given in patent US20170081401A1 (CLOSED JOINT STOCK COMPANY BIOCAD, published 2017).

Experiments:
[1] = molecular target: T1, monkey IL-17A (Macaca mulatta) (Macaca mulatta, UniProt F6T3G5 24-155); assay: BLI (OctetRed 96), BCD085 on AR2G sensors, monkey IL-17A as analyte, row 'Concentration (nm)' 68,7; 1:1 model; R^2 0,956946
Method: (§1) The affinity of BCD085 binding with human, monkey and rat IL-17A was analyzed on OctetRed 96 (ForteBio). BCD085 was non-specifically immobilized on the surface of amine reactive second-generation sensors (AR2G) according to the standard protocol described in the manufacturer's manual. The test was conducted at a temperature of 30° C. and using PBS with 0.1% Tween-20 and 0.1% BSA as a working buffer.
(§2) Binding curves (after subtracting a reference signal) were analyzed using Octet Data Analysis software (Version 7.0) in accordance with the standard procedure and using 1:1 interaction model.

[2] = molecular target: T1, monkey IL-17A (Macaca mulatta); assay: BLI (OctetRed 96), BCD085 on AR2G sensors, monkey IL-17A as analyte, row 'Concentration (nm)' 34,4; 1:1 model; R^2 0,964905
Method: as §1, §2

human IL-17A [3] = molecular target: T2, human IL-17A (human, UniProt Q16552 20-155, limits assumed); assay: cell-based or functional assay
T2 sequence (Q16552 20-155 limits assumed): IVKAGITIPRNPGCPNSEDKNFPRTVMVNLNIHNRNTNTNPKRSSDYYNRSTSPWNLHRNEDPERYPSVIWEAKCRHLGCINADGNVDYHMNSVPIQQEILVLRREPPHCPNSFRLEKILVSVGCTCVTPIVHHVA

human IL-17A [4] = molecular target: T2, human IL-17A; assay: BLI (OctetRed 96), BCD085 on AR2G sensors, human IL-17A as analyte, row 'Concentration (nm)' 34,3; 1:1 model; R^2 0,937248
Method: as §1, §2

human IL-17A [5] = molecular target: T2, human IL-17A; assay: BLI, OctetRed 96, BCD085 immobilized on AR2G sensors; human against monkey IL-17A
Method: as §1, §2

[6] = molecular target: T1, monkey IL-17A (Macaca mulatta); assay: BLI (OctetRed 96), BCD085 on AR2G sensors, monkey IL-17A as analyte, row 'Concentration (nm)' 17,2; 1:1 model; R^2 0,983707
Method: as §1, §2

rat IL-17A = molecular target: T3, rat IL-17A (rat, UniProt Q61453 18-150, limits assumed); assay: BLI, OctetRed 96, BCD085 immobilized on AR2G sensors, IL-17A as analyte
T3 sequence (looked up): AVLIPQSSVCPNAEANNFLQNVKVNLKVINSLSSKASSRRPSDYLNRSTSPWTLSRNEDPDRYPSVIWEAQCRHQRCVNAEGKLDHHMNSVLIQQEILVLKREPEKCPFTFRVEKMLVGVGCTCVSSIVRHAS
Method: as §1, §2

human IL-17A [7] = molecular target: T2, human IL-17A; assay: BLI (OctetRed 96), BCD085 on AR2G sensors, human IL-17A as analyte, row 'Concentration (nm)' 68,6; 1:1 model; R^2 0,973327
Method: as §1, §2

T1 sequence (F6T3G5 entry or part of it): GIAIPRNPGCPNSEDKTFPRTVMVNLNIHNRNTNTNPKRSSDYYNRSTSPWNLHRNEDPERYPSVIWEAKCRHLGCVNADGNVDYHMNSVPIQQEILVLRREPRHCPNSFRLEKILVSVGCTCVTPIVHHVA

B1: BCD085 monoclonal anti-IL-17A antibody (antibody, V domains shown)
VH: QVQLVQSGGGLVQPGGSLRLSCAADGFTFSNYAMSWVRQAPGKGLEWVSRIEGGIGSSTYAVDSVKDRFTISRDDAKNTLYLQMSSLKTEDTAVYYCAVNYYGMYYWGQGTLVTVSS
VL: QSVLTQPPSVSVAPGKTVTISCTGTSEDVGFGNYVSWYQHLPGTAPKLLIYRVNTRPSGVPDRFSGSQSGNTASLTISGLQAEDEADYYCSSYKAGGTYVFGGGTKLTVLG
notes: Full-length antibody produced in CHO-S cells; also called the candidate; monoclonal anti-IL-17A antibody of the invention
Kd [1]: 5.97 nM
Kd [2]: 4.15 nM
IC50, blocking of IL-17-induced IL-6 production by human HT1080 cells (40 ng/ml IL-17 + 20 ng/ml TNF-alpha), IL-6 measured by ELISA (human IL-17A [3]): 0.04 nM
Kd (human IL-17A [4]): < 0.001 nM
fold stronger affinity than to monkey IL-17A (human IL-17A [5]): 1000 fold
Kd [6]: 2.22 nM
binding result (rat IL-17A): no binding (tested: 126 nM (highest concentration titrated))
Kd (human IL-17A [7]): < 0.001 nM
